In assay [1] the target is T1, Nuclear receptor coactivator 2 (NCOA2), amino acids 366-624, bait fused to the Gal4 DNA binding domain (Saccharomyces cerevisiae, UniProt P04386 1-147; Q15596 366-624).
T1 construct: Bait expressed in yeast from vector pGBTQ as a C-terminal fusion to Gal4 DBD; Residues are counted on GenBank X97674; also called GRIP 1
In words: yeast two-hybrid screen with NCOA2 as bait. An excerpt: (§1) In these yeast cells, the bait is produced as a C-terminal fusion protein with the DNA binding domain of the transcription factor Gal4 (amino acids 1 to 147). A total human brain (person) cDNA library cloned into the yeast expression vector pACT2 was purchased from Clontech (human brain […] cDNA, cat. #HL4004AH), transformed into the yeast strain J692 (genotype of this strain: Mat a, ade2, his3, leu2, trp1, URA3::GAL1-lacZ LYS2::GAL1-HIS3 gal4del gal80del cyhR2), and selected for the ability to drive leucine synthesis. In these yeast cells, each cDNA is expressed as a fusion protein with the transcription activation domain of the transcription factor Gal4 (amino acids 768 to 881) and a 9 amino acid hemagglutinin epitope tag. J693 cells (Mat α type) expressing the bait were then mated with J692 cells (Mat a type) expressing proteins from the brain library. The resulting diploid yeast cells expressing proteins interacting with the bait protein were selected for the ability to synthesize tryptophan, leucine, histidine, and β-galactosidase. DNA was prepared from each clone, transformed by electroporation into E. coli strain KC8 (Clontech KC8 electrocompetent cells, cat. #C2023-1), and the cells were selected on ampicillin-containing plates in the absence of either tryptophane (selection for the bait plasmid) or leucine (selection for the brain library plasmid). […]

Assay [2] has as its target T1, Nuclear receptor coactivator 2 (NCOA2), …. In words: yeast two-hybrid; Gal4 DBD bait, prey from human brain library (Gal4 AD).
Text: as §1, with “A” for “In these yeast cells, the bait is produced as a C-terminal fusion protein with the DNA binding domain of the transcription factor Gal4 (amino acids 1 to 147). A”, “plasmid). DNA for both plasmids was prepared and sequenced by di-deoxynucleotide chain termination method.” for “plasmid).”

Assay [3] has the same target. In words: yeast two-hybrid; bait NCOA2 aa 366-624 (Gal4 DBD), prey from human brain library (Gal4 AD).
Text: as §1

B1: PN12361, amino acids 1-223, prey clone fused to the Gal4 activation domain (other, Saccharomyces cerevisiae, not shown: small tags and cut ends)
chain: ANFNQSGNIADSSLSFTFTNSSNGPNLITTQTNSQALSQPIASSNVHDNFMNNEITASKIDDGNNSKPLSPGWTDQTAYNAFGITTGMFNTTTMDDVYNYLFDDEDTPPNPKKEMDALVEDDICILNHEKAHKRDTVTPVSIYSGDESVASHFALVTAYEDIKKRLKDSEKENSLLKKRIRFLEEKLIARFEEETSSVGREQVNKAYHAYREVCIDRDNLKSKLDKMNKDNSESLKVLNEQLQSKEVELLQLRTEVETQQVMRNLNPPSSNWEVEKLSCDLKIHGLEQELELMRKECSDLKIELQKAKQTDPYQEDNLKSRDLQKLSISSDNMQHAY
notes: range 768-881; Prey from a human brain cDNA library in pACT2; also called novel AZ2-like protein
As for B1, in assay [1], the binding result is reported as “binds”.

B2: KIAA0619, amino acids 589-828, prey clone fused to the Gal4 activation domain (other, Saccharomyces cerevisiae;human, UniProt P04386 768-881, looked up, not shown: small tags and cut ends)
chain: ANFNQSGNIADSSLSFTFTNSSNGPNLITTQTNSQALSQPIASSNVHDNFMNNEITASKIDDGNNSKPLSPGWTDQTAYNAFGITTGMFNTTTMDDVYNYLFDDEDTPPNPKKESKQIQQLESNNRDLQDKNCLLETAKLKLEKEFINLQSALESERRDRTHGSEIINDLQGRICGLEEDLKNGKILLAKVELEKRQLQERFTDLEKEKSNMEIDMTYQLKVIQQSLEQEEAEHKATKARLADKNKIYESIEEAKSEAMKEMEKKLLEERTLKQKVENLLLEAEKRCSLLDCDLKQSQQKINELLKQKDVLNEDVRNLTLKIEQETQKRCLTQNDLKMQTQQVNTLKMSEKQLK
notes: Prey from a human brain cDNA library in pACT2; residues counted on GenBank AB014519; also called ROCK2
On to B2, for which, in assay [2], the binding result is given as “binds”.

B3: XE169, amino acids 1239-1439, prey clone fused to the Gal4 activation domain (other, Saccharomyces cerevisiae;human, UniProt P04386 768-881, looked up, not shown: small tags and cut ends)
chain: ANFNQSGNIADSSLSFTFTNSSNGPNLITTQTNSQALSQPIASSNVHDNFMNNEITASKIDDGNNSKPLSPGWTDQTAYNAFGITTGMFNTTTMDDVYNYLFDDEDTPPNPKKEDTKFLCPLCMRSRRPRLETILALLVALQRLPVRLPEGEALQCLTERAISWQGRARQALASEDVTALLGRLAELRQRLQAEPRPEEPPNYPAAPASDPLREGSGKDMPKVQGLLENGDSVTSPEKVAPEEGSGLELLSSLLPQLTGPVLELPEATRAPLEELMMEGDLLEVTLDENHSIWQLLQAGQPPDLERIRTLLE
notes: Prey from a human brain cDNA library in pACT2; also called SMCX
Take B3: the binding result in assay [3] was “binds”.

B4: Beta catenin (B-CAT), amino acids 487-668, prey clone fused to the Gal4 activation domain (other, Saccharomyces cerevisiae;human, UniProt P04386 768-881, looked up, not shown: small tags and cut ends)
chain: ANFNQSGNIADSSLSFTFTNSSNGPNLITTQTNSQALSQPIASSNVHDNFMNNEITASKIDDGNNSKPLSPGWTDQTAYNAFGITTGMFNTTTMDDVYNYLFDDEDTPPNPKKELHYGLPVVVKLLHPPSHWPLIKATVGLIRNLALCPANHAPLREQGAIPRLVQLLVRAHQDTQRRTSMGGTQQQFVEGVRMEEIVEGCTGALHILARDVHNRIVIRGLNTIPLFVQLLYSPIENIQRVAAGVLCELAQDKEAAEAIEAEGATAPLTELLHSRNEGVATYAAAVLFRMSEDKPQ
notes: Prey from a human brain cDNA library in pACT2; residues counted on GenBank Z19054
For B4, in assay [2], the binding result is listed as “binds”.

These data come from US20030054515A1 (MYRIAD GENETICS, published 2003).
